Laboratory results published in the supplement of paper PMC12636428.

The sequences below were run on Saccharomyces cerevisiae (assay: transcriptional activation domain activity (GFP:mCherry ratio, weighted mean of sorted bins, harmonized to initial dataset scale) (arbitrary fluorescence ratio units); higher = stronger transcriptional activation). Conditions: beta-estradiol 1 µM; induction time 4 h.
Outline: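 Values are activation activity, found as the read-weighted mean of bin median fluorescence, averaged across barcodes and then mapped linearly onto the initial dataset scale. Barcoded protein tiles fused to an estradiol-inducible synthetic transcription factor were integrated at the URA3 locus of GFP-reporter yeast diploids. Cells were induced for 4 hours at 30 °C with 1 uM beta-estradiol in SC, sorted into 8 bins by GFP:mCherry ratio, and barcode-sequenced, with tiles under 50 reads discarded.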

Row | Sequence | transcriptional activation domain activity
1 | VACEEEMRKLDEEDGRAGLGKGGEGEADREFKRHLRRMRASEVRIVRNVGDLL | 29000
2 | LRLDGSYLYFADVREANVEQLRLNFTADDVIFKCLAWSIRHFMILRDNYFGSF | 46300
3 | KEDAGEAEAEGSGDKAEEAIAEKPKRGRKKAEPKEKAEPAAKPAVGRKKSVAE | 45700
4 | CFSKCLDGHTLLLCTLYFLIINQKLLYCYVIVFFFWIWLSISLSYICVSELYY | 57100
5 | VRRLLWVTVIFDICFGMLYVLLAIFQCRPISYYWLGWDGEHQGTCLNVNGLAW | 46600
6 | DNDDDGETAAGGRLAHLLQILVCNAIYSFEPLLNCSQDVNNVLVVVTRYYGGI | 57500
7 | MCVAFSFSSPRFFYSWVMGDFSFFFSFLPPFDSFFSFSLGSIMYPLFLGIFFF | 59400
8 | PAHVIFDVVIVCAGYFAREAFEEVVRMTTMCAVGPVFVVQALVRAGKVCTGIG | 76300
9 | KIHIANMAQVAVFLLHKILYGIIPLFEISTCAYFPLLISLWHLNYLLFYTVMF | 63200
10 | NLFGWVRYAGVSVDHLKVHIVGAELWNRYKYAAGIWGYRALPIIALMASLIAC | 54200
11 | KPLSKRAAPKKAPAKRKSSAGSKSKETSAEPPKKRPAKAKAKPKKEATPASSP | 41900
12 | WEPPLYDSVGNHNHAGTMESHPHTNIHEELKEFLSGDLIEAEDNAKLMFGDDN | 55300
13 | MQLDGVQLGFVGLTPFFRERHTECPVFILVVGHSCKLLLIMHIILVIHLLDCR | 52900
14 | ARLRALEIIRAGHEGGYDGFFWGAWIPGLFHGKMTDIIALLLTHWGNVRNPAS | 65700
15 | MGIIIVVCVFFLFDRFSFLSCFSSFSLELIRFFIFILLTFLSFCHSPFYLFFF | 60900
16 | EKTEKKAKAPKSPKKEKKKEASETAAAPATEEPAKEAAKEEAAPATEAPAATE | 31300
17 | MNQTSRFFLLFFFFFFFYFFPFSHLLPSFLLLFLSFYFSPSYLLLCLFSLIFY | 42600
18 | SKPSSNGRSDCSKHSTGKDASNKKNNRGKSKKAKKKTAAAKANTTDNESDSSD | 33600
19 | CFFYSAIWLTTIPHCTGRCVRPCGVHLINLGHVCRNHSRYWGYCICNNKMTPY | 57600
20 | KSGCGYILGHINIFQPINWILVTSSKVFPIDYILFLLLVMFFFSASIVGIATV | 34400
21 | MSLFSPSPSLSLYNFKIRFCILLVPLILAFLFLIILISYCLSLFICFSSSLWF | 54700
22 | PLVRWMLDYVINHGEIVHSHPSIRTLATSLIDHPYFLSFICSSFFIEPRGLSG | 34800
23 | TPLRISLFLVRVRCRHPSYSKWLPVEIKRCGVLLMSRLSLSLYRIFLNHITLN | 59900
24 | PSPFPPSLSPPLFPPFPPLPLCPPFLPLFPPSPLSPPFLPLFPPLFLPLSFPP | 50200
25 | MLMAWVIHAKCSAVPQCPPRPAVRSYIGRITLSLIIRARCILEMIVFPTFICW | 55600

Row | Sequence | transcriptional activation domain activity
26 | QYYPGQLLSVKLDLFNTMLARVLDLSHMEILHFIVGPRVNIVGRGYPLRMGVV | 34100
27 | LYSIFSLLSIRFFILYSVYVFFFFIGALGGGMLYGLFFFFFFDEVIWYSFFLS | 35400
28 | IIAAKPEVLVKEEAAVKEEVPKAAAAKPKAKGKGKGKGKGKKVAEKKPEPVAE | 22400
29 | TTGGLFGGGAANTGTTGGFGSGGGFGSSTTGGGGLFGNAGNQPKPAGLFGSST | 27700
30 | GREGKKHRDRDGSSRGSSSKEKRRERSDGKKHREKSEGGKHREGRSREGRRED | 44700
31 | KAGCGYILGHINIFQPINWIFVVSAKVFPVDYVLFLLLVFFLFSASVVGVATV | 32300
32 | MYHPPWVLVGKCGSKEVRDELARHQLIACSRDLSVHVLKVDLLRKSWLLGHWR | 58900
33 | VKEGGKDLVQLPKSWVEIDGEILVRAVLLLLHPGATLYGPVPMKIARNWPFAS | 60700
34 | FVGPQLCRDDAWLHTSIQFTRNVGITRNLLRMLPAVVRPIVARLLPSYWRIYS | 41700
35 | LCKAIQFCVFLGFALAGYNFEPWHQLIVYETLCFVLFLSRVLLTIQYAVVLVY | 61400
36 | FPTVLVYYLLFAIGRLCTIMLYAALETCLAFMNHFPLFAMMLRLKDPARLPGG | 61800
37 | APPAAAAAAAAAPAKKAKKAKKAKKAGLLQKAKKAKKAKKAKKAAAAAAAPAA | 8130
38 | FFDDIPDTLESIRKHIDLFGNDFYLAHIYRTLRWWTKPTHVAVLGDLLGSQWI | 70300
39 | YHALKVYRGLGLLLVNGVTGICLSICVIVVACFGHFHFSPYWVLQWAVMSRIV | 63500
40 | VVLYMLRFLGLMHIMLFSHIDQRCKDFAKVYLRGRIIRYTCPFFSRSSLHKIV | 49400
41 | MPGGWVFLMSIAFYYFILLFFLLLPMIYGFLFVCLFGVGTCFVICTFGFFPFF | 62400
42 | MMLPLVQGWGSTDGFFIFIFIFFIFAFLFNLSIYRSFFFLPFLFFYMEVLLRL | 73300
43 | AQLHHRTWLIHWSLFPFFNFEPAKETLTEMFFSPAYINTIQTNCPWILRYLAA | 56700
44 | SIAISPESAVANLGTDTGLPSDVLDTVSKIGNSPNVFDDDLFSNLLWFDQNFA | 142000
45 | SDASAGAEAGTDGSAAPPKKKPRQKRAAPLPGEEGYDAAASKPKRAPRKRKAS | 25300
46 | MVLRYRLSRSFPTLFIHVQLVLQSLRMGQVSLCMVVQIVWEYIYFWLLGNIAW | 65600
47 | TPDSLCEAVTDLVRDIWYPLMTWMEFANPASGYISLDAPLFRAVLSLFHHFFA | 42900
48 | LSTVLKWSYEEIQVHIMTMRKEILNRRNHAYYDMYVLLLQLLLHIADSLTRGS | 45500
49 | RGEGDSKSDGKSDGKSEDKAENKGEEAPLVSEKDLVILAEHDLNGRQIKNVIK | 11000
50 | MEQTNKEDSGSDTQACPICDAPAVNRCSRCASVYYCSQEHQKEVRYESPSNAL | 49900

Row | Sequence | transcriptional activation domain activity
51 | ELLCIDRETGETRFVEPKVPDGISLRNFGIQVVSSCVLLLLVSLRPPHVLCAC | 53600
52 | AVMFGQVCVILVAFCFTNQITFVGIRHGLWRSRINTIRLYIFLLRCWQILCGL | 60900
53 | STATESGLAARSKDQIFCIPVPGQPWVDVRLRTLSESINSLLLLATLIKRCPV | 59300
54 | QQQEEEEKKKEVGGEAEGYEERVINMGAKNSAPMKAGDRIIICTPGGGGWGKS | 9620
55 | PFRIGRIVAWISYGIHQVGQWGILAKVQRAKEEWSNTYRWWNWSMVYLNGFML | 59700
56 | DFWDYLIVSLVPSLCVFFVRYFMFMVLFIVVGYFIPLLMCYMSYSIIRYPLFH | 43400
57 | MMYDSLSSLFVSTLFFSLYEFLCLSCPLCFNYPFQVGFCTLFLFFHPLFAFMQ | 34500
58 | RRVGEVMCFQALLHFLGMLSFWYGVLRRLGFTLINFFLNRVVLLGLLAFICYE | 69500
59 | VWVCGFLVVYLFYTWGVLSFVFFQMLINHLSFINLFFFYILSSFIGGLTLNFF | 51200
60 | YKKLQWHYFLFDLCYYVNILNFVFLWIFPHSPSLFVACYCLSLGSVASAIITW | 27700
61 | VKRVAFGCLSTILALYLVHKYTYEHPFILSDNRHYSFYVWKKIYRRHWMVRYC | 61000
62 | STTSDGAPGSEVPLKRRPGRPKGSKTKKRKIDTAPVPIAAAGTQPAASSTTAP | 35700
63 | RNVYLSRFWYLSFYSGNQLRRDLNVIVGVGKNWNLPSWWAPILRYIAAPILSI | 75600
64 | KAPTAPRKAGIAAKAGEKEAAAGAAAKVAEVTEAAARRGRGRPKKAQEELTAS | 50500
65 | MTSPPPPSITVSHLALVPFFRTPVSAYSLLFLLFFRLGLCLSCWLFLLFSFLF | 65800
66 | HYNALNGRWKVFRNEKDEDSIRVVAGMVWWGKILVVTCVEKGVFQIRLFSSIN | 7550
67 | EESGGESGGAADKNARVLSTALELALIVLDTCVELDGGRSLSLEHTALLLAAG | 69300
68 | VPLHISLPSLVIDVRVIGEPGLYFADLGCCYCLDAELQITHIHGLFLHVVFIL | 56600
69 | FLDCLKYILHNSHHLLVTVCDSFERTVRGLNKLKKMNVRQKDIYIGYYLLQYG | 46200
70 | MYYILMFLIYTCQLLLLLINLHWLAVACDTFPSWPLMQTNFYFCLLLLVTLFR | 31900
71 | KFTAFTFLPLTLWHEFSFFFNLYFLVVALSQCIPVLRIGYLSSYIVPLVFVLA | 54900
72 | APFFLPPFHFFFPFFPFPFFLGSFPFLFSFPFPFSFPFFLFHFPSFFPFLPSF | 65400
73 | DREAKEDGGDTGGGGGRDRGGEEEEDEEEEEEEEEDDGFIKKTKKDKKKKKKK | 36100
74 | MLAKGVWLACMFFFFFFFRLSFLNGSWCEYFYYLLCFFNSSYFFSSLSLRISF | 48300
